Here are results for 2 molecules from publication PMC5742583, “A Functional Analysis on the Interspecies Interaction between Mouse LFA-1 and Human Intercellular Adhesion Molecule-1 at the Cell Level” (Frontiers in Immunology, 2017).

One test concerns mouse macrophages. The test can be described thus: Mouse macrophage adhesion to human ICAM-1 (D1D5Fc)-coated plates. To be noted: plates coated with 5 µg human D1D5Fc; compared with mouse D1D5Fc; MTT. The class given is cell-based. Here is the method: Mouse macrophages were differentiated from mouse bone marrow as previously described ([37]). Briefly, bone marrow cells isolated from mouse femur were cultured in DMEM 10% FBS, 5% horse serum, and 30% supernatant of L929 cell culture as a source of M-CSF at a density of 10^6/cm^2 for 7–8 days. Macrophage differentiation was analyzed in the same way as human macrophages but using CD11b-APC and CD11c-PE (BD) antibodies.
Freshly isolated monocytes or differentiated macrophages were washed twice with PBS and incubated with trypsin (PAN Biotech) for 30 min at 37°C 5% CO2. After that, cells were scraped gently from the plate and resuspended at a final concentration of 10^6 cells/ml in complete RPMI medium. Subsequently, 10^5 macrophages and 5 × 10^5 monocytes were added to each well and incubated with several concentrations of human D1D2, D1D2Fc, D1D5Fc, mouse D1D5Fc, control human IgG1 20 µg or lovastatin 100 µM at 37°C 5% CO2 overnight. Next day, every well was washed twice with PBS, complete RPMI medium was added and the number or adherent remaining cells was quantified by a MTT colorimetric test ([38]). In some experiments, plates previously coated with human and mouse D1D5Fc were used. […]
Figure 7 Human intercellular adhesion molecule (ICAM)-1 blocks LFA-1-mediated mouse macrophage cell adhesion. […] (B) Macrophage phenotype was analyzed by flow cytometry testing the expression CD11b and CD11c. […]

Test [1] deals with LFA-1 in the mouse T cell line EL4. The test can be described thus: Binding of ICAM-1 chimeras to LFA-1 on EL4 cells by flow cytometry. The conditions noted are these: mouse or human D1D5Fc 0.1 and 5 µg, 4°C 45 min; representative experiment. The class given is cell-based. As for the experimental part: The ability of human D1D2Fc and mouse and human D1D5Fc to recognize LFA-1 on mouse cells was analyzed by flow cytometry in the mouse thymic lymphoma cell line EL4. EL4 cells were incubated with different concentrations of human D1D2Fc, mouse and human D1D5Fc and human IgG1 control at 4°C for 45 min, washed twice with FACS buffer (PBS, 5% FCS, 0.1% NaN3), and then incubated with PE-conjugated goat anti-human IgG (Fcγ fragment specific; Jackson ImmunoResearch). After a washing step with FACS buffer, cells were analyzed by FACS using a FACS Calibur with CellQuest Pro software (BD). As control cells were incubated with an antibody against mouse CD11a (LFA-1) before adding human D1D2Fc.
Figure 2 Analysis of D1D2Fc binding to LFA-1 in EL4 cells by flow cytometry. (A) Different amounts of D1D2Fc (0.1, 1, and 10 µg) or human IgG1 control (10 µg) were incubated with EL4 cells. After washing out non-bound proteins, cells were incubated with PE-conjugated goat anti-human IgG Fcγ Ab and analyzed by flow cytometry. As a control EL4 cells were pretreated with a mouse LFA-1 blocking antibody (anti LFA-1) before incubating with 10 µg of D1D2Fc. Histograms show a representative experiment. […] After washing out non-bound proteins, cells were incubated with PE-conjugated goat anti-human IgG Fcγ Ab and analyzed by flow cytometry. […]
A general note: In flow cytometry, cells or beads pass a laser one at a time.

A further test relates to human LFA-1. To be noted: purified cell-free models; ref [29]; cited from earlier work. The source says: Humanized mice are widely used as in vivo models to study the molecular basis of immune-related disorders as well as the efficacy of potential drugs ([23]). In these mice, the native gene of interest is replaced by its human homolog or the immune system is eliminated and reconstituted with its human counterpart. In addition, these mice can be used to enhance the engraftment of human cancer cells allowing in vivo studies of cancer progression and treatment. Here, a major obstacle to analyze human cell function, either healthy or transformed, and disease is the lack of species cross-reactivity o ...

B1: human D1D5Fc: human Fc chimera containing the five extracellular domains of ICAM-1, R&D systems (protein)
chain: QTSVSPSKVILPRGGSVLVTCSTSCDQPKLLGIETPLPKKELLLPGNNRKVYELSNVQEDSQPMCYSNCPDGQSTAKTFLTVYWTPERVELAPLPSWQPVGKNLTLRCQVEGGAPRANLTVVLLRGEKELKREPAVGEPAEVTTTVLVRRDHHGANFSCRTELDLRPQGLELFENTSAPYQLQTFVLPATPPQLVSPRVLEVDTQGTVVCSLDGLFPVSEAQVHLALGDQRLNPTVTYGNDSFSAKASVSVTAEDEGTQRLTCAVILGNQSQETLQTVTIYSFPAPNVILTKPEVSEGTEVTVKCEAHPRAKVTLNGVPAQPLGPRAQLLLKATPEDNGRSFSCSATLEVAGQLIHKNQTRELRVLYGPRLDERDCPGNWTWPENSQQTPMCQAWGNPLPELKCLKDGTFPLPIGESVTVTRDLEGTYLCRARSTQGEVTRKVTVNVLSPRYE
modifications: left off: Fc, end not stated, kept
notes: human Fc chimera containing the five extracellular domains of ICAM-1, R&D systems
For B1, the “adhesion of mouse macrophages to coated plate” value in the test with mouse macrophages was “similarly adhered”. Also, the “binding to EL4 cells” value in test [1] was “binding of human ICAM-1 was higher than binding of mouse ICAM-1”.

B2: mouse ICAM-1: mouse ICAM-1, purified cell-free models of ref [29] (protein, UniProt P13597 28-537, looked up)
Intercellular adhesion …: QVSIHPREAFLPQGGSVQVNCSSSCKEDLSLGLETQWLKDELESGPNWKLFELSEIGEDSSPLCFENCGTVQSSASATITVYSFPESVELRPLPAWQQVGKDLTLRCHVDGGAPRTQLSAVLLRGEEILSRQPVGGHPKDPKEITFTVLASRGDHGANFSCRTELDLRPQGLALFSNVSEARSLRTFDLPATIPKLDTPDLLEVGTQQKLFCSLEGLFPASEARIYLELGGQMPTQESTNSSDSVSATALVEVTEEFDRTLPLRCVLELADQILETQRTLTVYNFSAPVLTLSQLEVSEGSQVTVKCEAHSGSKVVLLSGVEPRPPTPQVQFTLNASSEDHKRSFFCSAALEVAGKFLFKNQTLELHVLYGPRLDETDCLGNWTWQEGSQQTLKCQAWGNPSPKMTCRRKADGALLPIGVVKSVKQEMNGTYVCHAFSSHGNVTRNVYLTVLYHSQNNWTIIILVPVLLVIVGLVMAASYVYNRQRKIRIYKLQKAQEEAIKLKGQAPPP
Regarding B2, in the test on human LFA-1, the “binding to human LFA-1” value is given as “binds human LFA-1”.
